Assay results as given in article PMC12618757.

Molecular target: EGFP-mPiezo1 (murine Piezo1 fused to EGFP) (murine) (UniProt E2JF22)
Sequence of UniProt E2JF22 (E2JF22 whole entry, the tested form may be a part): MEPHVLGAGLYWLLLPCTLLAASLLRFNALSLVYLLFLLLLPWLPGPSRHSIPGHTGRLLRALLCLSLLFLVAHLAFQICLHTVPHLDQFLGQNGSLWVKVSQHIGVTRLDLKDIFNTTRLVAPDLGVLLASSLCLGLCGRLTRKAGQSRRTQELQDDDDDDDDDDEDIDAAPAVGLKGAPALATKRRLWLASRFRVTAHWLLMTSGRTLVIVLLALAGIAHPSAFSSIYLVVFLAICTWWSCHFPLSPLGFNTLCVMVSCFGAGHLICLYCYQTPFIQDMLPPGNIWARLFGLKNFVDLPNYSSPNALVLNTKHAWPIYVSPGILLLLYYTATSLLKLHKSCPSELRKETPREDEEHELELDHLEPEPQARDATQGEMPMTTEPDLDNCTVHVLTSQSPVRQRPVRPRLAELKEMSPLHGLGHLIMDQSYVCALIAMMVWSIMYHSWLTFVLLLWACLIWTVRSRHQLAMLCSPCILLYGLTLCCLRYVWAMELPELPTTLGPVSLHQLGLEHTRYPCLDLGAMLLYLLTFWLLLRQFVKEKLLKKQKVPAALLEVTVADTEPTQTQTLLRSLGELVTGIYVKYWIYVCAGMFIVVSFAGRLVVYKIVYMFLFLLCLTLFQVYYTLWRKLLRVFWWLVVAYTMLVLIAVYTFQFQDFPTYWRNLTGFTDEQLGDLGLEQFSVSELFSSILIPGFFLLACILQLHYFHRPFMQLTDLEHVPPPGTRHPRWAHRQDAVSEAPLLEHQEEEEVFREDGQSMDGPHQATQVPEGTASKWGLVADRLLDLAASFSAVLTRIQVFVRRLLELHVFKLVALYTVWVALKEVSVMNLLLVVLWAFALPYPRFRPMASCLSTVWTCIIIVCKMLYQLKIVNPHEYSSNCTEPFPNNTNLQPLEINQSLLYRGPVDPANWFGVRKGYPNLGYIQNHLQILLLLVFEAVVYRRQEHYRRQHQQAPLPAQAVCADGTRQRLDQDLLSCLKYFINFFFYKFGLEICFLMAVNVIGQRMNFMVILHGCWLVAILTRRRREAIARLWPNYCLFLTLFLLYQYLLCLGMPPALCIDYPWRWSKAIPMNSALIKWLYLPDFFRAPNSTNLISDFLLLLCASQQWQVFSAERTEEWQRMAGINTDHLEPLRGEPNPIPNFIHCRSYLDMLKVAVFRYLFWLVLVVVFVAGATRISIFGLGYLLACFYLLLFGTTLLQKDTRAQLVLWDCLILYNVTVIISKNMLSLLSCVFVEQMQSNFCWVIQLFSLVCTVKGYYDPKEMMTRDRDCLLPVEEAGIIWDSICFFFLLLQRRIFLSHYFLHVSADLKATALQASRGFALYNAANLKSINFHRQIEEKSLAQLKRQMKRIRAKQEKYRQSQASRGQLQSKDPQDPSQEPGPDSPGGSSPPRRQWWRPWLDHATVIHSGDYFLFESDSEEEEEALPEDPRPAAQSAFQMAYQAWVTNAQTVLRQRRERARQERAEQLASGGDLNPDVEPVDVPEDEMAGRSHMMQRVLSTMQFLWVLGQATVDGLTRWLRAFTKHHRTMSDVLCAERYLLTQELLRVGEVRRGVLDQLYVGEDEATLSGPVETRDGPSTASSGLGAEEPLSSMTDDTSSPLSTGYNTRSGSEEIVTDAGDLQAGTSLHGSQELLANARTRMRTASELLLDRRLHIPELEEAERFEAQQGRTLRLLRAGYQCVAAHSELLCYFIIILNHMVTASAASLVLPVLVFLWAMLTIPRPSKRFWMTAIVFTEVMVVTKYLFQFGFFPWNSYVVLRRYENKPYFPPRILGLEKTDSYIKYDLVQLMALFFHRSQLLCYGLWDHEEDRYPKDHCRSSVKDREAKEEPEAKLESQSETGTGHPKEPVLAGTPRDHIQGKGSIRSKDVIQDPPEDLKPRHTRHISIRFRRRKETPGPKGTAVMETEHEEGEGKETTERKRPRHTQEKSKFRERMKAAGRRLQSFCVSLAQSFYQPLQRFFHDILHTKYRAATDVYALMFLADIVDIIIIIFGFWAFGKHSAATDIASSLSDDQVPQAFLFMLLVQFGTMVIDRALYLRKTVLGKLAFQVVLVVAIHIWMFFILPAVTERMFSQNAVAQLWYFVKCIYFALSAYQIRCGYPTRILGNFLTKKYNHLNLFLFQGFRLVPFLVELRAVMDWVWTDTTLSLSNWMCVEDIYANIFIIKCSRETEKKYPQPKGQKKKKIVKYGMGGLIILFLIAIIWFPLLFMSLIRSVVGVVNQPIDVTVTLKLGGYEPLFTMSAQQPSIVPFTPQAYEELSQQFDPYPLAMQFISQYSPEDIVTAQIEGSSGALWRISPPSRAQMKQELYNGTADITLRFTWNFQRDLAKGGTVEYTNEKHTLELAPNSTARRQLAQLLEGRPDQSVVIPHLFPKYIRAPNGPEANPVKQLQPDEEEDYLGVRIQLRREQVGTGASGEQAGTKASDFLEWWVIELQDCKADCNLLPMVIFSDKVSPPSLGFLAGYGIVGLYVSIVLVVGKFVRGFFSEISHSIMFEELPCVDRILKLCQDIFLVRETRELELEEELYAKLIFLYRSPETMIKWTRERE

LecB-S22A mutant (natural protein)
average stretch-induced current at −80 mmHg, EGFP-mPiezo1-overexpressing H1299 cells, LecB-S22A for 3 h (not significantly changed compared to untreated control cells): -36.5 pA
